The target of assay [1] is human FcγRIIIa (F158 allele) (human) (UniProt P08637).
The target of assay [2] is human FcγRIIIa (V158 allele) (human) (UniProt P08637).
Assay [3] concerns the target human FcRn (human) (UniProt P55899). Kind of assay: MSD [cont'd].
Assay [4] has as its target human FcγRIIIa (F158 allele) (human) (UniProt P08637). Put plainly: MSD [cont'd].
The target in assay [5] is human FcγRIIIa (V158 allele) (human) (UniProt P08637). Kind of assay: MSD [cont'd].
The target in assay [6] is human FcγRIIIb (human) (UniProt O75015). Kind of assay: MSD [cont'd].
Assay [7] addresses human FcγRIIa (H131 allele) (human) (UniProt P12318). Kind of assay: MSD [cont'd].
In assay [8] the target is human FcγRIIa (R131 allele) (human) (UniProt P12318). Kind of assay: MSD [cont'd].
Assay [9] deals with human FcγRIIb (human) (UniProt P31994). Kind of assay: MSD [cont'd].
Assay [10] deals with human FcγRIIIa (F158 allele) (human) (UniProt P08637). The source holds these as a separate data set.
Assay [11] deals with human FcγRIIIa (V158 allele) (human) (UniProt P08637). This is another data set of the same source.
The target of assay [12] is human FcγRIIa (H131 allele) (human) (UniProt P12318).
The target in assay [13] is human FcγRIIb (human) (UniProt P31994).
The target of assay [14] is human FcγRIIIa (F158 allele) (human) (UniProt P08637). Put plainly: MSD.
Assay [15] has as its target human FcγRIIIa (V158 allele) (human) (UniProt P08637). Put plainly: MSD.
Assay [16] concerns the target human FcγRIIIb (human) (UniProt O75015). Put plainly: MSD.
Assay [17] deals with human FcγRIIa (H131 allele) (human) (UniProt P12318). Put plainly: MSD.
The target of assay [18] is human FcγRIIa (R131 allele) (human) (UniProt P12318). Kind of assay: MSD.
Assay [19] addresses human FcγRIIb (human) (UniProt P31994). Put plainly: MSD.
Assay [20] addresses human C1q (human) (UniProt P02745). Put plainly: MSD [cont'd].
Assay [21] concerns the target human FcγRIIb (human) (UniProt P31994). Kind of assay: Table B summary, vs fucosylated wild-type human IgG1.
The target of assay [22] is human FcRn (human) (UniProt P55899). Kind of assay: MSD, pH 6 [cont'd].
In assay [23] the target is human C1q (human) (UniProt P02745). Put plainly: MSD [cont'd]. This is another data set of the same source.
The target of assay [24] is human FcRn (human) (UniProt P55899). Put plainly: MSD [cont'd]. This is another data set of the same source.
The target in assay [25] is human FcγRIIIa (F158 allele) (human) (UniProt P08637). Kind of assay: MSD [cont'd]. The source holds these as a separate data set.
The target of assay [26] is human FcγRIIIa (V158 allele) (human) (UniProt P08637). Put plainly: MSD [cont'd]. The source holds these as a separate data set.
For assay [27], the target named is human FcγRIIa (H131 allele) (human) (UniProt P12318). Put plainly: MSD [cont'd]. This is another data set of the same source.
For assay [28], the target named is human FcγRIIa (R131 allele) (human) (UniProt P12318). Kind of assay: MSD [cont'd]. This is another data set of the same source.
The target in assay [29] is human FcγRIIb (human) (UniProt P31994). Put plainly: MSD [cont'd]. This is another data set of the same source.

Like-named read-outs stand apart in the source and are kept apart here.

Chain of human FcγRIIb (human) (P31994 43-217 limits assumed): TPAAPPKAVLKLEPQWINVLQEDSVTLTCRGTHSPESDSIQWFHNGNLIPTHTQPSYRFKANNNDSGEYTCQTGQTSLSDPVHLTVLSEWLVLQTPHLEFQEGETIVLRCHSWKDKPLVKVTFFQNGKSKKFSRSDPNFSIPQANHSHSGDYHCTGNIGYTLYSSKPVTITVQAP
Chain of human FcγRIIa (H131 allele) (human) (P12318 34-218 limits assumed): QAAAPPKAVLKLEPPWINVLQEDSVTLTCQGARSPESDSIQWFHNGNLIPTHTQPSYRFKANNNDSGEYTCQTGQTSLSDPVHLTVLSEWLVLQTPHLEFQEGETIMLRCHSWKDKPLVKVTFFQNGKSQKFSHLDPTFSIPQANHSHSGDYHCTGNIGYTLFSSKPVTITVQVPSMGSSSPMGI
Chain of human FcγRIIa (R131 allele) (human) (P12318 34-218 H167R limits assumed): as the sequence (P12318 34-218 limits assumed) above, with H134R counted along it
Chain of human FcγRIIIa (V158 allele) (human) (P08637 17-208 F176V limits assumed): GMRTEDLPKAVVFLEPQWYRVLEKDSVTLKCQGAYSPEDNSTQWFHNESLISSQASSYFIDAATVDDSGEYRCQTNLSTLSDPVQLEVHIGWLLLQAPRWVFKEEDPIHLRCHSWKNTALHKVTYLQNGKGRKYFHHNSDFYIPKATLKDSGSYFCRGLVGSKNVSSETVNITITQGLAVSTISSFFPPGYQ
Chain of human FcγRIIIa (F158 allele) (human) (P08637 17-208 limits assumed): as the sequence (P08637 17-208 F176V limits assumed) above, with V160F counted along it
Chain of human FcγRIIIb (human) (O75015 17-200 limits assumed): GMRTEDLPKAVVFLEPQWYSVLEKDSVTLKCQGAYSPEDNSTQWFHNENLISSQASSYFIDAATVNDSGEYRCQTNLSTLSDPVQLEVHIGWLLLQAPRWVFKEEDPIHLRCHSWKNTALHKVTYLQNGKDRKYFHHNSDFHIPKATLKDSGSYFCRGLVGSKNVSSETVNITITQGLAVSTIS
Chain of human C1q (human) (P02745 23-245 limits assumed, chain 1 of 3): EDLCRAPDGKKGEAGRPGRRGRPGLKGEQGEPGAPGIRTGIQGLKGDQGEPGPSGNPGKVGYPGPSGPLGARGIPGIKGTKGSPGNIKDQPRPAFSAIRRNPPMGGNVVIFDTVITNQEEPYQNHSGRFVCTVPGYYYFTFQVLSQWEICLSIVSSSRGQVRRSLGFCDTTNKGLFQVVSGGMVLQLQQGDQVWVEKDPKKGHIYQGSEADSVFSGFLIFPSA
Chain of human C1q (human) (P02746 28-253 limits assumed, chain 2 of 3, further chain): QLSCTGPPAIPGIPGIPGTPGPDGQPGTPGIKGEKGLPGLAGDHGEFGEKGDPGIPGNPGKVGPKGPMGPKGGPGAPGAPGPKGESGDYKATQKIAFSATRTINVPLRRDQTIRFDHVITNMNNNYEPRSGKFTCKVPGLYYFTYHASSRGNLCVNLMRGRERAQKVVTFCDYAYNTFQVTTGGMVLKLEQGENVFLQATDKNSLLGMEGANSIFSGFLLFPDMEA
Chain of human C1q (human) (P02747 29-245 limits assumed, chain 3 of 3, further chain): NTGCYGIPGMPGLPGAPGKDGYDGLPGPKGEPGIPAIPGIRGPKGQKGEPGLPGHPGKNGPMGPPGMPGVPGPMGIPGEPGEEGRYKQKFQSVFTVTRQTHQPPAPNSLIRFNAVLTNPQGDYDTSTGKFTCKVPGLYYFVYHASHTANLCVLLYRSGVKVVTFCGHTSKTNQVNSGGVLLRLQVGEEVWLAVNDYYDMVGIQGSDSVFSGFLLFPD
Chain of human FcRn (human) (P55899 24-297 limits assumed, chain 1 of 2): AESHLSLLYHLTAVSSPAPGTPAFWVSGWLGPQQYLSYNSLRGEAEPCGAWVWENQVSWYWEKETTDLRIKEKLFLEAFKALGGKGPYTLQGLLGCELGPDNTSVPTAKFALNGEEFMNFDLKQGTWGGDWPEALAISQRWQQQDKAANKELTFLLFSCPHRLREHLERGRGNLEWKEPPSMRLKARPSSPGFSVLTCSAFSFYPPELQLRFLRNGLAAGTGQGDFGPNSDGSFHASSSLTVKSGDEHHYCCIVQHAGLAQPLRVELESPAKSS
Chain of human FcRn (human) (chain, as listed by the source limits assumed, chain 2 of 2): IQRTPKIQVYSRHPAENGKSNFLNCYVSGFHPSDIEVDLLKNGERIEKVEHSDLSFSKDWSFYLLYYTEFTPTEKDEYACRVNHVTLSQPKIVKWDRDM

As to R292P_Y300L-afuc (antibody), the results for the FcγR reporter signaling, fold to wt-fucose [cont'd] in [1] and in [2] were 10.6 fold and 4.52 fold, respectively. Also, the fold to wt-fucose with human FcRn (human) [3] is 0.82 fold; in assay [4] it was 26.5 fold; in assay [5], 16.1 fold; with human FcγRIIIb (human) [6], 4.53 fold; in assay [7], 1.27 fold; in assay [8], 0.72 fold. Further, the fold to wt-fucose with human FcγRIIb (human) [9] is 1.05 fold.

For the substance “IgG1 antibody with Fc variant G236S_G420V_G446E_L309T”, the FcγR reporter signaling, fold-change vs wt [cont'd] is 0.03 fold in assay [10], 0.06 fold in assay [11], 2.56 fold in assay [12] and 0.22 fold in the assay with human FcγRIIb (human) [13]. Moreover, the fold-change vs wt in assay [14] amounted to 0.32 fold; in [15], 0.09 fold; with human FcγRIIIb (human) [16], 0.56 fold; in assay [17], 4.85 fold; in [18], 1.47 fold; in the assay with human FcγRIIb (human) [19], 0.39 fold. Also, the fold-change vs wt was 0.21 fold with human C1q (human) [20] and 0.77 fold in the assay with human FcRn (human) [3]. In addition, in the assay with human FcγRIIb (human) [21], the fold-change in binding vs fucosylated wild-type human IgG1 was 0.5 fold.

Take “IgG1 antibody with Fc variant G236A_R292P”: the FcγR reporter signaling, fold-change vs wt [cont'd] in assay [10] was found to be 0.29 fold; in assay [11] it was 0.54 fold; in [12], 1.47 fold; in the assay with human FcγRIIb (human) [13], 0.15 fold. For the same substance, the fold-change vs wt stood at 0.6 fold in [14]; 0.41 fold in assay [15]; 0.95 fold with human FcγRIIIb (human) [16]; 5.65 fold in assay [17]; 1.04 fold in assay [18]; 0.45 fold with human FcγRIIb (human) [19]. Further, the fold-change vs wt is 0.13 fold with human C1q (human) [20] and 0.81 fold with human FcRn (human) [3]. For the same substance, the fold-change to WT Fc in assay [17] was 5.65 fold; in [18] it was 1.04 fold; with human FcγRIIb (human) [19], 0.446 fold; with human C1q (human) [20], 0.125 fold; in assay [4] it was 0.603 fold; in assay [5], 0.411 fold. Further, in the assay with human FcRn (human) [22], the fold-change to WT Fc is 0.809 fold. In addition, in the assay with human FcγRIIb (human) [21], the fold-change in binding vs fucosylated wild-type human IgG1 is 0.5 fold.

Take G236A_S239D_A330L_I332E-afuc (antibody): the FcγR reporter signaling, fold to wt-fucose [cont'd] worked out at 11.5 fold in assay [1] and 5.16 fold in assay [2]. The fold to wt-fucose is 0.96 fold with human FcRn (human) [3]; 730 fold in assay [4]; 75.6 fold in assay [5]; 94.3 fold with human FcγRIIIb (human) [6]; 3.58 fold in assay [7]; 7.58 fold in assay [8]. For the same substance, the fold to wt-fucose with human FcγRIIb (human) [9] turned out to be 1.21 fold.

Regarding S239D_H268E_G236A-afuc (antibody), the values for the FcγR reporter signaling, fold to wt-fucose [cont'd] in assay [1] and in [2] were 11.6 fold and 5.65 fold, respectively. For the same substance, the fold to wt-fucose came out at 1.01 fold with human FcRn (human) [3]; 425 fold in [4]; 84.9 fold in assay [5]; 38.1 fold with human FcγRIIIb (human) [6]; 13.6 fold in assay [7]; 62 fold in assay [8]. The fold to wt-fucose with human FcγRIIb (human) [9] is 6.35 fold.

As for IgG1 antibody with Fc variant G236W, the fold-change to WT Fc in assay [17] was 1.06 fold; in assay [18], 0.469 fold; in the assay with human FcγRIIb (human) [19] it was 0.652 fold; in the assay with human C1q (human) [20], 3.66 fold; in [4], 0.541 fold; in assay [5] it was 0.117 fold. Moreover, the fold-change to WT Fc with human FcRn (human) [22] turned out to be 1.09 fold. Also, the fold-change vs wt amounted to 3.63 fold with human C1q (human) [23]; 1.09 fold in the assay with human FcRn (human) [24]; 0.54 fold in assay [25]; 0.12 fold in assay [26]; 1.06 fold in [27]; 0.47 fold in [28]. For the same substance, the fold-change vs wt with human FcγRIIb (human) [29] was determined as 0.65 fold.

Take G236R_L328R-afuc (antibody): the results for the FcγR reporter signaling, fold to wt-fucose [cont'd] in assay [1] and in assay [2] were 0.05 fold and 0.2 fold, respectively. Besides, the fold-change (reference not given) with human FcγRIIb (human) [19] amounted to 0.2 fold. Also, the fold to wt-fucose with human FcRn (human) [3] was 1.09 fold; in assay [4], 0.33 fold; in assay [5] it was 0.07 fold; with human FcγRIIIb (human) [6], 0.6 fold; in [7], 0.16 fold; in assay [8], 0.24 fold. The fold to wt-fucose in the assay with human FcγRIIb (human) [9] is 0.17 fold.

The values are drawn from patent US20260184814A1, “BROADLY NE[…] INFLUENZA NEURAMINIDASE” (priority 2022, published 2026).
